The record followed here is publication PMC10996581 (The Journal of Cell Biology, 2024).

First the molecules themselves.
B1: CTxA_(I124-F132) peptide, 5-FAM labelled, wild-type sequence (peptide)
peptide: IYGWYRVHF
modifications: also: 5-FAM labelled, position not given here

Where two headings read alike, the source gives them in different places. Where no end group is shown, it is not given here. The star is where a group is joined. 5FAM = O=C1OC2(c3ccc(O)cc3Oc3cc(O)ccc32)c2ccc(C(=O)*)cc21

Common to all, as to assay: […]
In assay [1] the target is T1, His6-IRE1αLD (human, UniProt O75460 24-443).
T1 sequence: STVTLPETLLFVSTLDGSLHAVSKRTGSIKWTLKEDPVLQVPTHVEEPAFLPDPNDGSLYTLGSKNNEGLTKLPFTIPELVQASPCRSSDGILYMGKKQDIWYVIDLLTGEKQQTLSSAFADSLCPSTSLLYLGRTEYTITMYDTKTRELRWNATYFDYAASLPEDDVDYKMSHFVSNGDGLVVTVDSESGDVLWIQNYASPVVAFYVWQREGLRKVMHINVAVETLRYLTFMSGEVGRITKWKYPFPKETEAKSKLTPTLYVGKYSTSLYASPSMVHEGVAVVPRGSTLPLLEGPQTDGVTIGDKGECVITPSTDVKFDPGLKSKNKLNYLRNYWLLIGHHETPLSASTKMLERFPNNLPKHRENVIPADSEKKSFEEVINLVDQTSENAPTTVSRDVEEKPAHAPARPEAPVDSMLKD

The target of assay [2] is B1.
Assay [3] has as its target T1, His6-IRE1αLD. The source holds these as a separate data set.

Molecule 5FAM-YLAWYQQKP [human IgG light chain variable domain (VL) peptide, 5-FAM labelled] came in with a Kd in assay [1] of 219 mM. As to YWLLIGHHETPL [unlabeled IRE1α_(Y358-L369) peptide, wild-type sequence], the “fold weaker affinity than either peptide alone binding to IRE1αLD” value in assay [2] was at least 10 fold. The binding result in assay [3] was “binds”. With B1, in assay [1], the binding result is “binds”. Take 5FAM-YWLLIGHHETPL [IRE1α_(Y358-L369) peptide, 5-FAM labelled, wild-type sequence]: the Kd in assay [1] stood at 0.24 mM.
